Test [1] concerns the target T1, HLA-A02/HBsAg348-357 (…) complex on the cell surface (human; human (Homo sapiens) as printed …). As to the kind of experiment: cell-based or functional assay.
The target of test [2] is T1, HLA-A02/HBsAg348-357 (…) complex on the …. Put plainly: cell-based or functional assay. The source holds these as a separate data set.
Test [3] addresses T2, CD3D-CD3E-mFc (human; mouse).
T2 construct: also called antigen CD3D-CD3E-mFc
T2 chain 1: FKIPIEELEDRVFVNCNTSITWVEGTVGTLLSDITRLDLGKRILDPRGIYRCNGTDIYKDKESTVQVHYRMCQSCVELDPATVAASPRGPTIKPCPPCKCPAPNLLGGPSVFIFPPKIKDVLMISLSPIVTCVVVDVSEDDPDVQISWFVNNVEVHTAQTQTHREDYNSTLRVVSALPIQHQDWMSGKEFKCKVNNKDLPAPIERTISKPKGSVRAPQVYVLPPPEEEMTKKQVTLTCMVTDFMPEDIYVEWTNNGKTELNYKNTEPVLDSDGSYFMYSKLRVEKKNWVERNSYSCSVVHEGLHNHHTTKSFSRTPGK
T2 chain 2: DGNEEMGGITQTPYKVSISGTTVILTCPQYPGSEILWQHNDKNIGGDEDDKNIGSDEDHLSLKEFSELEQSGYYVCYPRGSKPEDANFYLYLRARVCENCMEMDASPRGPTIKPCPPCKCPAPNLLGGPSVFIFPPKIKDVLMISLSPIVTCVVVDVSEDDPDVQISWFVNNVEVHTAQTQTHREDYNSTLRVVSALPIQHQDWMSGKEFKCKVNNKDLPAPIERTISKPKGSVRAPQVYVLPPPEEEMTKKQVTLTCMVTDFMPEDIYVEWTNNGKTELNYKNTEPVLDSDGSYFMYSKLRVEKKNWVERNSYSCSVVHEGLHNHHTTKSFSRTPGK
Put plainly: SPR Biacore T200; method of Section 3.1, CD3D-CD3E-mFc as antigen.

The target in test [4] is T1, HLA-A02/HBsAg348-357 (…) complex on the …. Put plainly: cell-based or functional assay. This is another data set of the same source.
The target in test [5] is T3, HLA-A02 complex presenting … (MIP-H1-01), disulfide trap single-chain trimer. As to the kind of experiment: SPR Biacore T200; method of Section 3.1. (Surface plasmon resonance follows binding to a sensor surface in real time, without labels.)
Test [6] has as its target T1, HLA-A02/HBsAg348-357 (…) complex on the …. As to the kind of experiment: cell-based or functional assay. This is another data set of the same source.
The target of test [7] is T3, HLA-A02 complex presenting … ….
Test [8] has the same target. The source holds these as a separate data set.

Substitutions are numbered along the chain they refer to. Like-named read-outs stand apart in the source and are kept apart here.

As a reminder, the Kd is the constant that tells how readily two partners part at equilibrium. A higher Kd goes with weaker binding. For orientation: koff means the first-order rate constant of dissociation. By kon is commonly meant the second-order rate constant of association. Read a high kon as faster complex formation.

B1: TCRm×CD3 bispecific antibody 2N1B5+IMCR (bispecific antibody)
chain 1: QVQLVESGGGSVQAGGSLRLSCAASDDTYMTNCMGWFRQAPGKEREGVAAIYTGGGRAVYADSVRGRFTISQDNAKNTVYLQMNSLKPEDTAMYYCAADWLGPDMTDIQVLGALPWFNYWGQGTLVTVSSGGGGSGGGGSGGGGSQVQLVESGGGSVQAGGSLRLSCAASDDTYMTNCMGWFRQAPGKEREGVAAIYTGGGRAVYADSVRGRFTISQDNAKNTVYLQMNSLKPEDTAMYYCAADWLGPDMTDIQVLGALPWFNYWGQGTLVTVSSASERKSSVECPPCPAPEFEGGPSVFLFPPKPKDTLMISRTPEVTCVVVDVSQEDPEVQFNWYVDGVEVHNAKTKPREEQYNSTYRVVSVLTVLHQDWLNGKEYKCKVSNKALPASIEKTISKAKGQPREPQVCTLPPSQEEMTKNQVSLSCAVKGFYPSDIAVEWESNGQPENNYKTTPPVLDSDGSFFLVSKLTVDKSRWQEGNVFSCSVMHEALHNHYTQKSLSLSPGK
chain 2: not shown
B1: the “EC50 of activation of Jurkat-Dual cells by targeting antigen peptide-pulsed T2 cells (QUANTI-Luc)” value in test [1] came out at 2.41 pM. Moreover, in test [2], the “EC50 of killing of HepG2-HBsAg cells by PBMCs (LDH release)” value was 8.83 pM. In test [3], the Kd amounted to 2960 pM, the koff was 0.000175 s⁻¹ and the kon was found to be 59200 M⁻¹ s⁻¹. In test [4], the “EC50 of killing of antigen peptide-pulsed T2 cells by PBMCs (LDH release)” value was determined as 0.278 pM. In test [5], this molecule showed a Kd of 237 pM, a koff of 0.000145 s⁻¹ and a kon of 613000 M⁻¹ s⁻¹. Further, the “EC50 of activation of Jurkat-Dual cells by targeting HLA-A02+/HBsAg+ tumor cells HepG2-HBsAg (QUANTI-Luc)” value in test [6] was 389 pM.

B2: TCRm×CD3 bispecific antibody 2N1B5-h4+IMCR (bispecific antibody)
chain 1: B1 chain 1 with Q1E, S11L, A14P, E46V, Q146E, S156L, A159P, E191V
chain 2: not shown
B2: the “EC50 of killing of HepG2-HBsAg cells by PBMCs (LDH release)” value in test [2] is 9.52 pM. In test [3], binding was put at a Kd of 2040 pM, the koff was 0.000132 s⁻¹ and the association rate constant (kon) worked out at 64700 M⁻¹ s⁻¹. Also, the “EC50 of killing of antigen peptide-pulsed T2 cells by PBMCs (LDH release)” value in test [4] was 0.209 pM. In test [5], this molecule had a Kd of 531 pM, a dissociation rate constant (koff) of 0.00014 s⁻¹ and an association rate constant (kon) of 263000 M⁻¹ s⁻¹.

B3: N1B5-h4-Fc recombinant protein (humanized anti-HLA-A02/HBsAg complex TCRm antibody N1B5-h4) (Fc fusion)
chain: EVQLVESGGGLVQPGGSLRLSCAASDDTYMTNCMGWFRQAPGKERVGVAAIYTGGGRAVYADSVRGRFTISQDNAKNTVYLQMNSLKPEDTAMYYCAADWLGPDMTDIQVLGALPWFNYWGQGTLVTVSS
In test [7], B3 yielded a Kd of 191 pM, a koff of 0.000125 s⁻¹ and a kon of 656000 M⁻¹ s⁻¹.

B4: N1B5-Fc recombinant protein (anti-HLA-A02/HBsAg complex TCRm antibody N1B5) (Fc fusion, not shown: a dimerising Fc or GST)
chain: B3 chain with E1Q, L11S, P14A, V46E
With B4, in test [8], the affinity, expressed as Kd, was 140 pM; the koff came out at 9.7e-05 s⁻¹; the on-rate (kon) was 692000 M⁻¹ s⁻¹.
